# Data as given in patent US20200377593A1 (Innovent, published 2020).
# Where a chain is given by its changes, count along the chain named.
# B1: ADI-29337 (antibody, human IgG1, kappa, V domains shown)
# VH: QVQLQESGPGLVKPSETLSLTCTVSGGSINHYYWSWIRQPPGKGLEWIGAIYYSGSTRYNPSLKSRVTISVDTSKNQFSLKLSSVTAADTAVYYCARGKSAFDPWGQGTLVTVSS
# VL: DIQMTQSPSSVSASVGDRVTITCRASQGISRWLAWYQQKPGKAPKLLIYAASSLQSGVPSRFSGSGSGTDFTLTISSLQPEDFATYYCQQADLHPPLTFGGGTKVEIKR
# notes: Full-length IgG1 kappa expressed in yeast, purified by Protein A
# B2: Hu5F9 (antibody, V domains shown)
# VH: QVQLVQSGAEVKKPGASVKVSCKASGYTFTNYNMHWVRQAPGQRLEWMGTIYPGNDDTSYNQKFKDRVTITADTSASTAYMELSSLRSEDTAVYYCARGGYRAMDYWGQGTLVTVSS
# VL: DIVMTQSPLSLPVTPGEPASISCRSSQSIVYSNGNTYLGWYLQKPGQSPQLLIYKVSNRFSGVPDRFSGSGSGTDFTLKISRVEAEDVGVYYCFQGSHVPYTFGQGTKLEIKR
# B3: ADI-29347 (antibody, human IgG1, kappa, V domains shown)
# VH: QVQLQESGPGLVKPSETLSLTCTVSGGSIANYYWSWIRQPPGKGLEWIGYTYFSGSTNYNPSLKSRVTISVDTSKNQFSLKLSSVTAADTAVYYCARGKTGSAAWGQGTLVTVSS
# VL: DIQMTQSPSSVSASVGDRVTITCRASQGISRWLAWYQQKPGKAPKLLIYAASSLQSGVPSRFSGSGSGTDFTLTISSLQPEDFATYYCQQTVSFPITFGGGTKVEIKR
# notes: as for B1
# B4: ADI-29337 Fab fragment (Fab, V domains shown)
# VH: B1 VH
# VL: B1 VL
# B5: ADI-26660 Fab fragment (Fab, V domains shown)
# VH: B1 VH with N30S, H31S, A50S, R58N, G98K, K99Q, S100K, A101H, P104I, L110M
# VL: B3 VL with R31S, T91V, V92N, S93H, F94H, I96W
# notes: also called ADI-26660 (Fab form)
# B6: ADI-26655 Fab fragment (Fab, V domains shown)
# VH: B1 VH with N30S, H31S, A50Y, R58T, G98K, S100R, A101F, P104L, L110T
# VL: not shown
# notes: also called ADI-26655 (Fab form)
# B7: ADI-29342 Fab fragment (Fab, V domains shown)
# VH: B3 VH with A30M, N31H, T51I, F53Y
# VL: B3 VL
# B8: ADI-29347 Fab fragment (Fab, V domains shown)
# VH: B3 VH
# VL: B3 VL
# notes: also called ADI-29347 (Fab form)
# B9: ADI-29350 Fab fragment (Fab, V domains shown)
# VH: B1 VH with N30E, A50Y, S56F, R58E, G98K, S100R, A101F, P104L, L110T
# VL: not shown
# notes: also called ADI-29350 (Fab form)
# B10: ADI-29345 Fab fragment (Fab, V domains shown)
# VH: B3 VH with A30S, N31H, T51I, F53Y, S56V, N58T, A103T
# VL: B3 VL
# B11: ADI-26660 (antibody, human IgG1, kappa, V domains shown)
# VH: B1 VH with N30S, H31S, A50S, R58N, G98K, K99Q, S100K, A101H, P104I, L110M
# VL: B3 VL with R31S, T91V, V92N, S93H, F94H, I96W
# notes: as for B1
# B12: ADI-29342 (antibody, human IgG1, kappa, V domains shown)
# VH: B3 VH with A30M, N31H, T51I, F53Y
# VL: B3 VL
# notes: as for B1
# B13: ADI-26655 (antibody, human IgG1, kappa, V domains shown)
# VH: B1 VH with N30S, H31S, A50Y, R58T, G98K, S100R, A101F, P104L, L110T
# VL: not shown
# notes: as for B1
# B14: ADI-29345 (antibody, human IgG1, kappa, V domains shown)
# VH: B3 VH with A30S, N31H, T51I, F53Y, S56V, N58T, A103T
# VL: B3 VL
# notes: as for B1
# B15: ADI-29350 (antibody, human IgG1, kappa, V domains shown)
# VH: B1 VH with N30E, A50Y, S56F, R58E, G98K, S100R, A101F, P104L, L110T
# VL: not shown
# notes: as for B1
# B16: ADI-29338 (antibody, human IgG1, kappa, V domains shown)
# VH: B1 VH with N30S, H31S, A50T
# VL: B1 VL
# notes: as for B1
# Target: T1, mouse CD47-Fc (mouse, UniProt Q61735 19-140, limits assumed)
# T1 construct: not shown: Fc part; not described
# T1 sequence (looked up): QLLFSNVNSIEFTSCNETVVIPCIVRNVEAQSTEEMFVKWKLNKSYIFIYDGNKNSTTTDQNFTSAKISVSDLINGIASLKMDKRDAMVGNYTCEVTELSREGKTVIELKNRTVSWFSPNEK
# Test: BLI (ForteBio), antibody on AHQ tip, mouse CD47-Fc in solution 100 nM, bivalent
row,Binder,Kd [nM]
1,B1,18.7
2,B2,12.7

# Target: T2, cynomolgus monkey CD47-Fc (cynomolgus monkey, UniProt A0A2K5X523 19-139)
# T2 construct: not shown: Fc part; not described
# Test: BLI (ForteBio), antibody on AHQ tip, cynomolgus monkey CD47-Fc in solution 100 nM, bivalent
row,Binder,Kd [nM]
1,B1,0.554
2,B3,0.562

# Target: T3, human CD47-Fc (human, UniProt Q08722 19-139)
# T3 construct: also called hCD47; not shown: Fc part
# Test: BLI (ForteBio), human CD47-Fc on AHQ tip, Fab in solution 100 nM, monovalent
row,Binder,Kd [nM]
1,B4,2.2
2,B5,130
3,B6,46.3
4,B7,11.7
5,B8,11.3
6,B9,5.04
7,B10,2.89

# Target: T3, human CD47-Fc
# Test: BLI (ForteBio), antibody on AHQ tip, human CD47-Fc in solution 100 nM, bivalent
row,Binder,Kd [nM]
1,B11,1.35
2,B1,0.404
3,B12,0.486
4,B13,0.849
5,B14,0.403
6,B3,0.71
7,B15,0.451

# Target: T4, human CD47 overexpressed on CHO cells (human, UniProt Q08722 19-292)
# T4 construct: CHO cells transfected with pCHO1.0 carrying human CD47 cDNA (Sino Biological); also called hCD47; CHO-hCD47 cells
# Test: flow cytometry on CHO-hCD47 cells, PE anti-human IgG, MFI curve
row,Binder,EC50 [nM]
1,B11,5.74
2,B12,2.74
3,B13,7.65
4,B14,1.5
5,B3,1.81
6,B15,4.42
7,B16,1.57

# Target: T1, mouse CD47-Fc
# Test: BLI (ForteBio), antibody on AHQ tip, mouse CD47-Fc in solution, bivalent
row,Binder,binding result
1,B11,no binding (tested: 100 nM)
2,B12,no binding (tested: 100 nM)
3,B13,no binding (tested: 100 nM)
4,B14,no binding (tested: 100 nM)
5,B3,no binding (tested: 100 nM)
6,B15,no binding (tested: 100 nM)

# Target: T4, human CD47 overexpressed on CHO cells
# Test: flow cytometry competition on CHO-hCD47 cells against 200 nM mouse Fc-labeled SIRPα
row,Binder,IC50 [nM]
1,B11,16.7
2,B12,2.69
3,B13,38.1
4,B14,2.75
5,B3,2.16
6,B15,10.5
7,B16,3.14
